Our source for the Kd values is US20220064300A1.

Experiment [1] has as its target Murine FcγRIIB extracellular domain (mouse) (UniProt P08101). Put plainly: SPR, binding at equilibrium, antibody injected at 37 °C over murine FcγRIIB extracellular domain amine-coupled to a CM5 chip, reference channel mouse CD200.
Experiment [2] has the same target. Description: SPR, dissociation constant from binding at equilibrium on immobilized murine FcγRIIB extracellular domain, 37 °C. A general note: Surface plasmon resonance follows binding to a sensor surface in real time, without labels.

Sequence of UniProt P08101 (P08101 30-210): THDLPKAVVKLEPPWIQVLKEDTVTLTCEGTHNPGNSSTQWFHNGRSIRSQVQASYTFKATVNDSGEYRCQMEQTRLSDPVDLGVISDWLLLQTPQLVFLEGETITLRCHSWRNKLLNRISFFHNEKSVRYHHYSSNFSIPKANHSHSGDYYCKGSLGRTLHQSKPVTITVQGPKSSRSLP

Consider “JJ316 (anti-rat CD28 antibody, superagonistic; BD Biosciences cat #554992)”, for which the Kd in experiment [1] and in experiment [2] was 3.02 µM each time.

Regarding “JJ316+50 (JJ316 extended in the hinge with a 50 amino acid insertion from murine CD43) (antibody)”, the Kd in experiment [1] and in experiment [2] was 1.07 µM each time.

As to “chimeric Nivolumab in an extended form containing the 50-residue extension (antibody)”, the Kd in experiment [1] and in experiment [2] was 8.51 µM throughout.
